Experiments:
[1] = molecular target: TGF-β1 (inducer of the TGF-β/Smad reporter signal) (UniProt P01137 279-390, limits assumed); assay: cell-based or functional assay
[2] = molecular target: T1, human TGF-β1 (immobilised on the CM5 chip, Biacore) (human, UniProt P01137 279-390); assay: SPR (Biacore), human TGF-β1 amine-coupled to CM5, antibody 250 nM, 1:1 fit
T1 construct: also called antigen TGF-β1
Procedure: The affinity constants of CT101, CT102, CT111, and CT112 with human TGF-β1 were measured with a Biacore molecular interaction meter. HBS-EP served as buffer, human TGF-β1 was immobilized on the surface of CM5 chip by Bicaore standard amino coupling. Binding of antibodies CT101, CT102, CT111, and CT112 to human TGF-β1 was performed, where the concentration of antibodies CT101, CT102, CT111, and CT112 was 250 nM, the flow rate was 30 μl/min, the binding duration was 120 s, and the dissociation duration was 880 s. The chip was regenerated by using 10 mM glycine, where PH was 2.7, the flow rate was 30 μl/min, and the duration was 120 s. The affinity constants were obtained by data fitting analysis with a 1:1 model. Data was collected with Biacore Control 2.0 software and analyzed using Biacore T200 Evaluation 2.0 software. The kinetics parameters of antibodies CT101, CT102, CT111, and CT112 binding to human TGF-β1 are shown in Table 2, and the test results of specific kinetic parameters of antibodies CT101, CT102, CT111, and CT112 binding to human TGF-β1 are shown in FIG. 7.

[3] = molecular target: T2, fusion protein TGF-β1-His (human, UniProt P01137 279-390); assay: competitive ELISA, plate coated with TGF-β1-His, antibody titrated against human TGFβRII-ECD-Fc-biotin (0.1 µg/ml), detection with SA-HRP
T2 construct: 118 aa: a 112-residue TGF-β1 segment with a C-terminal His6 tag
Procedure: (§1) The ELISA plate was coated with TGF-β1-His and incubated at 37° C. for 3 hours. After rinsing the plate, 1% BSA was used for blocking at 37° C. for one hour. After rinsing the plate, serially diluted antibody and human TGFβRII-ECD-Fc-biotin (final concentration 0.1 μg/ml) were added and incubated at room temperature for 2 hours. After rinsing the plate, HRP labeled streptavidin SA-HRP (1:2000) working solution was added and incubated at 37° C. for 30 minutes. After rinsing the plate, TMB developing solution was added to develop for 5 min in a dark place, and termination solution was added to terminate the chromogenic reaction. The ELISA plate was immediately put into an ELISA reader, and the optical wavelength of 450 nm was selected to read the OD value of each well of the ELISA plate. The data was analyzed and processed with SoftMax Pro software.

[4] = molecular target: T2, fusion protein TGF-β1-His; assay: indirect ELISA, plate coated with TGF-β1-His, detection with enzyme-labeled anti-human IgG
Procedure: as §1, with “blocking” for “blocking at 37° C.”, “antibody was” for “antibody and human TGFβRII-ECD-Fc-biotin (final concentration 0.1 μg/ml) were”, “at 37° C.” for “at room temperature”, “for 60 minutes.” for “for 2 hours.”, “plate, enzyme-labeled donkey anti-human IgG secondary antibody” for “plate, HRP labeled streptavidin SA-HRP (1:2000)”, “5 minutes” for “5 min”

[5] = molecular target: T1, human TGF-β1 (immobilised on the CM5 …); assay: SPR (Biacore), human TGF-β1 amine-coupled to CM5, 1:1 fit
Procedure: The affinity constants of CT101 with human TGF-β1 were measured with a Biacore system for molecular interaction. HBS-EP served as buffer, human TGF-β1 was immobilized on the surface of CM5 chip by Bicaore standard amino coupling. Binding of antibody CT101 to human TGF-β1 was performed, where the concentration of antibody CT101 was 8-250 nM (2 fold dilution), the flow rate was 30 μl/min, the binding duration was 120 s, and the dissociation duration was 880 s. The chip was regenerated using 10 mM glycine, where PH was 2.7, the flow rate was 30 μl/min, and the duration was 120 s. The affinity constants were obtained by data fitting analysis with a 1:1 model. Data was collected with Biacore Control 2.0 software and analyzed using Biacore T200 Evaluation 2.0 software. The kinetics parameters of antibodies CT102 and CAT192 binding to human TGF-β1 are shown in Table 2, and the test results of specific kinetic parameters of antibody CT101 to human TGF-β1 are shown in FIG. 21.

[6] = molecular target: T2, fusion protein TGF-β1-His; assay: competitive ELISA, TGF-β1-His coated; competitor human TGFβRII-ECD-Fc-biotin 0.1 µg/ml
Procedure: as §1

[7] = molecular target: T2, fusion protein TGF-β1-His; assay: indirect ELISA, TGF-β1-His coated
Procedure: as §1, with “blocking” for “blocking at 37° C.”, “antibody was” for “antibody and human TGFβRII-ECD-Fc-biotin (final concentration 0.1 μg/ml) were”, “at 37° C.” for “at room temperature”, “for 60 minutes.” for “for 2 hours.”, “plate, enzyme-labeled donkey anti-human IgG secondary antibody” for “plate, HRP labeled streptavidin SA-HRP (1:2000)”, “5 minutes” for “5 min”

T1 sequence (P01137 279-390 limits assumed): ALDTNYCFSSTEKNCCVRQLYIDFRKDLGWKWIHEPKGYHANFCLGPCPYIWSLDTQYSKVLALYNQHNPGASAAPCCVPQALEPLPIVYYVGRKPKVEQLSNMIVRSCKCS
Chain of TGF-β1 (inducer of the TGF-β/Smad reporter signal) (P01137 279-390 limits assumed): as above
T2 sequence (P01137 other isoform, or with tags, fused parts or gaps limits assumed): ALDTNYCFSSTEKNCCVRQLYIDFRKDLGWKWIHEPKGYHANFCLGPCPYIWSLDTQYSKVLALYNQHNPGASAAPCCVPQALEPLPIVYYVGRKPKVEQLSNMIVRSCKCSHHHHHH

IC50, TGF-β/Smad luciferase reporter in HEK293 cells [1]	Kd [2]	koff [2]	kon [2]	IC50 (read off the curve) [3]	EC50 (read off the curve) [4]	Kd [5]	koff [5]	kon [5]	IC50 [6]	IC50, TGF-β/Smad luciferase reporter in HEK293-CD4 cells [1]	EC50 [7]	Binder
~0.8 nM	–	–	–	–	–	–	–	–	–	–	–	bifunctional antibody CT111 (bispecific antibody, human IgG4 S228P, kappa) light: not shown heavy: QVQLQQSGPEVVKPGASVKMSCKASGYTFTSYVIHWVRQKPGQGLDWIGYINPYNDGTDYDEKFKGKATLTSDTSTSTAYMELSSLRSEDTAVYYCAREKDNYATGAWFAYWGQGTLVTVSSASTKGPSVFPLAPCSRSTSESTAALGCLVKDYFPEPVTVSWNSGALTSGVHTFPAVLQSSGLYSLSSVVTVPSSSLGTKTYTCNVDHKPSNTKVDKRVESKYGPPCPPCPAPEFLGGPSVFLFPPKPKDTLMISRTPEVTCVVVDVSQEDPEVQFNWYVDGVEVHNAKTKPREEQFNSTYRVVSVLTVLHQDWLNGKEYKCKVSNKGLPSSIEKTISKAKGQPREPQVYTLPPCQEEMTKNQVSLWCLVKGFYPSDIAVEWESNGQPENNYKTTPPVLDSDGSFFLYSALTVDKSRWQEGNVFSCSVMHEALHNHYTQKSLSLSLGK EVQLVESGGGVVQPGRSLRLSCAASGFTFSSYGMHWVRQAPGKELEWVAVISYDGSIKYYADSVKGRFTISRDNSKNTLYLQMNSLRAEDTAVYYCARTGEYSGYDTDPQYSWGQGTTVTVSSGGGGSGGGGSGGGGSEIVLTQSPSSLSASVGDRVTITCRASQGIGDDLGWYQQKPGKAPILLIYGTSTLQSGVPSRFSGSGSGTDFTLTINSLQPEDFATYYCLQDSNYPLTFGGGTRLEIKYGPPCPPCPAPEFLGGPSVFLFPPKPKDTLMISRTPEVTCVVVDVSQEDPEVQFNWYVDGVEVHNAKTKPREEQFNSTYRVVSVLTVLHQDWLNGKEYKCKVSNKGLPSSIEKTISKAKGQPREPQVCTLPPSQEEMTKNQVSLSCAVKGFYPSDIAVEWESNGQPENNYKTTPPVLDSDGSFKLVSRLTVDKSRWQEGNVFSCSVMHEALHNHYTQKSLSLSLGK
~1 nM	1.97 nM	5.9e-05 s⁻¹	30000 M⁻¹ s⁻¹	–	–	–	–	–	–	–	–	bifunctional antibody CT112 (bispecific antibody, human IgG4 S228P, kappa, also called IgG CrossMab) light: not shown heavy: QVQLQQSGPEVVKPGASVKMSCKASGYTFTSYVIHWVRQKPGQGLDWIGYINPYNDGTDYDEKFKGKATLTSDTSTSTAYMELSSLRSEDTAVYYCAREKDNYATGAWFAYWGQGTLVTVSSASTKGPSVFPLAPCSRSTSESTAALGCLVKDYFPEPVTVSWNSGALTSGVHTFPAVLQSSGLYSLSSVVTVPSSSLGTKTYTCNVDHKPSNTKVDKRVESKYGPPCPPCPAPEFLGGPSVFLFPPKPKDTLMISRTPEVTCVVVDVSQEDPEVQFNWYVDGVEVHNAKTKPREEQFNSTYRVVSVLTVLHQDWLNGKEYKCKVSNKGLPSSIEKTISKAKGQPREPQVYTLPPCQEEMTKNQVSLWCLVKGFYPSDIAVEWESNGQPENNYKTTPPVLDSDGSFFLYSALTVDKSRWQEGNVFSCSVMHEALHNHYTQKSLSLSLGK chain 1: EVQLVESGGGVVQPGRSLRLSCAASGFTFSSYGMHWVRQAPGKELEWVAVISYDGSIKYYADSVKGRFTISRDNSKNTLYLQMNSLRAEDTAVYYCARTGEYSGYDTDPQYSWGQGTTVTVSGGSGTVAAPSVFIFPPSDEQLKSGTASVVCLLNNFYPREAKVQWKVDNALQSGNSQESVTEQDSKDSTYSLSSTLTLSKADYEKHKVYACEVTHQGLSSPVTKSFNRGECSKYGPPCPPCPAPEFLGGPSVFLFPPKPKDTLMISRTPEVTCVVVDVSQEDPEVQFNWYVDGVEVHNAKTKPREEQFNSTYRVVSVLTVLHQDWLNGKEYKCKVSNKGLPSSIEKTISKAKGQPREPQVCTLPPSQEEMTKNQVSLSCAVKGFYPSDIAVEWESNGQPENNYKTTPPVLDSDGSFKLVSRLTVDKSRWQEGNVFSCSVMHEALHNHYTQKSLSLSLGK chain 2: EIVLTQSPSSLSASVGDRVTITCRSSQGIGDDLGWYQQKPGKAPILLIYGTSTLQSGVPSRFSGSGSGTDFTLTINSLQPEDFATYYCLQDSNYPLTFGGGTRLEIKGSSASTKGPSVFPLAPCSRSTSESTAALGCLVKDYFPEPVTVSWNSGALTSGVHTFPAVLQSSGLYSLSSVVTVPSSSLGTKTYTCNVDHKPSNTKVDKRVES
~0.25 nM	–	–	–	~0.09 nM	~0.08 nM	0.8 nM	2.4e-05 s⁻¹	30000 M⁻¹ s⁻¹	0.105 nM	0.25 nM	0.0845 nM	anti-TGF-β1 antibody CAT192 (antibody, human IgG4, V domains shown, The background section calls CAT192 a human IgG4 monoclonal antibody) VH: EVQLVESGGGVVQPGRSLRLSCAASGFTFSSYGMHWVRQAPGKELEWVAVISYDGSIKYYADSVKGRFTISRDNSKNTLYLQMNSLRAEDTAVYYCARTGEYSGYDTDPQYSWGQGTTVTVSS VL: EIVLTQSPSSLSASVGDRVTITCRSSQGIGDDLGWYQQKPGKAPILLIYGTSTLQSGVPSRFSGSGSGTDFTLTINSLQPEDFATYYCLQDSNYPLTFGGGTRLEIK
